Experimental data published in paper PMC3795685.

Biological target: TAP-tagged wild-type Infected Cell Polypeptide 4 (ICP4) of HSV-1 strain KOS (herpes simplex virus type 1 (HSV-1), strain KOS) (UniProt P08392)
Assay: pull-down; streptavidin affinity purification of TAP-tagged ICP4 from nuclear extracts of infected Vero cells (3 or 6 hpi), independent samples; biotin eluates analysed by Western blot, in part quantified with a LI-COR Odyssey imager and normalised to ICP4; untagged virus as control

Chain of UniProt P08392 (P08392 whole entry): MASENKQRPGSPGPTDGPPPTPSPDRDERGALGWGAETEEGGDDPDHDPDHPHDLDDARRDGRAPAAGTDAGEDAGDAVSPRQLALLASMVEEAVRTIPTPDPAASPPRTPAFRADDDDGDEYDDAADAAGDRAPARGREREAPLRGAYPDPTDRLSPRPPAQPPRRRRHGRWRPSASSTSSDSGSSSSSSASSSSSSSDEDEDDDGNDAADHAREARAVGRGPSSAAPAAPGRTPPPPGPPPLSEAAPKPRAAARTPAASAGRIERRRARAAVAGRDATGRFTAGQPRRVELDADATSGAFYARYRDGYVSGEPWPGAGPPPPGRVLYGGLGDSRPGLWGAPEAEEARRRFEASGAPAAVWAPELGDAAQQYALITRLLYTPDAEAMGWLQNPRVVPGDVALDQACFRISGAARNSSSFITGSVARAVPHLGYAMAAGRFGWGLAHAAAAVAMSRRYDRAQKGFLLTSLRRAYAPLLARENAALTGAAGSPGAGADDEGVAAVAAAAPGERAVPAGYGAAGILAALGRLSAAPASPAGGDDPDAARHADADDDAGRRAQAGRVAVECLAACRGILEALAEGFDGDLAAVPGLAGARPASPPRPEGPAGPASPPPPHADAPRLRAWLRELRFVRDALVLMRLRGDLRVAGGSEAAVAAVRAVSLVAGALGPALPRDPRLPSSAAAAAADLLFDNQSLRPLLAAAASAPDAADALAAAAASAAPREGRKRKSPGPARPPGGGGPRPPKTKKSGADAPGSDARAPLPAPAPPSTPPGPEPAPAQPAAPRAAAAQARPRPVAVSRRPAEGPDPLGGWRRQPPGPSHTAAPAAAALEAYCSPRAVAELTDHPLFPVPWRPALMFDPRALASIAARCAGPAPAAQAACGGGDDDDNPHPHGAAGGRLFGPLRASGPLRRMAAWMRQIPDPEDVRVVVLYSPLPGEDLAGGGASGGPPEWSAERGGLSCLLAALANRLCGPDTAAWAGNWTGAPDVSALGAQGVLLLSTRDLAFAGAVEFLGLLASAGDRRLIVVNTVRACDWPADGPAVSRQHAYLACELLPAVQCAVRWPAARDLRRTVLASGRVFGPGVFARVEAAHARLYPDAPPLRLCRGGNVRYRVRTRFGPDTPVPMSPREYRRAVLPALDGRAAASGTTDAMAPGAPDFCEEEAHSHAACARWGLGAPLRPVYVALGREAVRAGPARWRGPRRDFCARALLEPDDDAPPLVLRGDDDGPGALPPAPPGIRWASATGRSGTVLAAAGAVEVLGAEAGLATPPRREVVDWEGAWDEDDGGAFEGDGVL

MED1 (natural protein)
fold increase of the amount co-purified at 6 hpi against 3 hpi (normalised to ICP4): 3 fold
